# B1: Annexin V: binds to PS with high affinity (protein, UniProt P08758 2-320, looked up)
# Annexin A5: AQVLRGTVTDFPGFDERADAETLRKAMKGLGTDEESILTLLTSRSNAQRQEISAAFKTLFGRDLLDDLKSELTGKFEKLIVALMKPSRLYDAYELKHALKGAGTNEKVLTEIIASRTPEELRAIKQVYEEEYGSSLEDDVVGDTSGYYQRMLVVLLQANRDPDAGIDEAQVEQDAQALFQAGELKWGTDEEKFITIFGTRSVSHLRKVFDKYMTISGFQIEETIDRETSGNLEQLLLAVVKSIRSIPAYLAETLYYAMKGAGTDDHTLIRVMVSRSEIDLFNIRKEFRKNFATSLYSMIKGDTSGDYKKALLLLCGEDD
# B2: tTF219: residues 1-219 of TF plus an additional glycine at the N-terminus (protein)
# chain: GSGTTNTVAAYNLTWKSTNFKTILEWEPKPVNQVYTVQISTKSGDWKSKCFYTTDTECDLTDEIVKDVKQTYLARVFSYPAGNVESTGSAGEPLYENSPEFTPYLETNLGQPTIQSFEQVGTKVNVTVEDERTLVRRNNTFLSLRDVFGKDLIYTLYYWKSSSSGKKTAKTNTNEFLIDVDKGENYCFSVQAVIPSRTVNRKSTDSPVECMGQEKGEFRE
# Key:
# [1] = system: cancer patients having progressive disease; settings: human, in vivo; cited from earlier work
# [2] = system: TNFα; settings: cited from earlier work
# [3] = system: IL-1α-stimulated bEnd.3 cells; assay: Factor Xa formation by coaguligand on bEnd.3 cells, chromogenic assay; assay type: cell-based, mouse; settings: 10 μg per ml
# Procedure: The ability of Annexin V to affect Factor Xa formation induced by coaguligand was determined by a chromogenic assay. […] Annexin V was added at concentrations ranging from 0.1 to 10 μg/ml and cells were incubated for 30 min. before addition of diluted Proplex T. The amount of Factor Xa generated in the presence or absence of Annexin V was determined. Each treatment was performed in duplicate and repeated at least twice.
# [4] = system: L540 Hodgkin tumors; assay: Annexin V inhibition of coaguligand-induced thrombosis in vivo; parameters: species or system SCID mice
# Procedure: The ability of Annexin V to inhibit coaguligand-induced thrombosis in vivo was examined in L540 Hodgkin-bearing SCID mice.
# Four hours after the last injection mice were anesthetized and perfused with heparinized saline. Tumors were removed, fixed with 4% formalin, paraffin-embedded and stained with hematoxylene-eosin. The number of thrombosed and non-thrombosed blood vessels were counted and the percentage of thrombosis was calculated.
# [5] = system: C1300 Muγ tumors; assay: Anti-tumor effects (tumor growth), C1300 Muγ; assay type: in vivo, nu/nu mice; settings: 300 mm^3 at start
# Procedure: The tumor test systems were: i) L540 human Hodgkin's disease tumors growing in SCID mice; ii) C1300 Muγ (interferon-secreting) neuroblastoma growing in nu/nu mice; iii) H460 human non-small cell lung carcinoma growing in nu/nu mice. To establish solid tumors, 1.5×10^7 tumor cells were injected subcutaneously into the right anterior flank of SCID or BALB/c nu/nu mice (Charles River Labs., Wilmingham, Mass.). When the tumors had grown to various diameters, mice were assigned to different experimental groups, each containing 4 to 9 mice.
# Other mice received equivalent quantities of bispecific antibody alone. The injections were performed over ˜45 seconds into one of the tail veins, followed by 200 μl of saline. The infusions were repeated six days later. Perpendicular tumor diameters were measured at regular intervals and tumor volumes were calculated.
# Mice bearing small (300 mm^3) C1300 Muγ tumors were injected intravenously with 16-20 μg tTF219. The treatment was repeated one week later. […] One week after the second treatment with tTF219, tumors were 60% of the size of tumors in mice receiving diluent alone. The greater effectiveness of the second injection probably derives from the greater thrombotic action of tTF219 on vessels in large tumors, observed above. […]
# [6] = system: HT29 human colorectal carcinomas; assay: Anti-tumor effects, HT29; assay type: in vivo, Nu/nu mice; settings: large (1200 mm^3) tumors
# Procedure: Anti-tumor effects were also observed in mice bearing HT29 human colorectal carcinomas. Nu/nu mice bearing large (1200 mm^3) tumors on their flanks were injected intravenously with tTF219 or PBS (control), and growth of the tumors was monitored each day for 10 days. The tumors in the tTF219 treated mice discontinued growth for about 7 days after treatment, whereas the tumors in mice treated with PBS continued to grow unchecked.
# [7] = system: C1300 mouse neuroblastoma; assay: In vivo tumor thrombosis, C1300; parameters: species or system BALB/c nu/nu mice; settings: large tumors (>1000 mm^3); 24 hours after injection
# From the text: (§1) Tumor test systems were of four types: i) 3LL mouse lung carcinoma growing subcutaneously in C57BL/6 mice; ii) C1300 mouse neuroblastoma growing subcutaneously in BALB/c nu/nu mice; iii) HT29 human colorectal carcinoma growing subcutaneously in BALB/c nu/nu mice; and iv) C1300 Muγ mouse neuroblastoma growing subcutaneously in BALB/c nu/nu mice. The C1300 Muγ tumor is an interferon-γ secreting transfectant derived from the C1300 tumor (Watanabe et al, 1989).
# (§2) To establish tumors, 10^6 to 1.5×10^7 tumor cells were injected subcutaneously into the right anterior flank of the mice. When tumors had grown to various sizes, mice were randomly assigned to different study groups. […] Fab′, or bispecific antibody. Other mice received equivalent quantities IgG, Fab′ or bispecific antibody alone. The injections were performed slowly into one of the tail veins over approximately 45 seconds, usually followed by 200 μl of saline.
# (§3) Twenty-four hours after being injected with tTF or immunoglobulin-tTF conjugates, the mice were anesthetized with metophane and were exsanguinated by perfusion with heparinized saline. Tumors and normal tissues were excised and immediately fixed in 3% (v/v) formalin. Paraffin sections were cut and stained with hematoxylin and eosin. Blood vessels having open lumens containing erythrocytes and blood vessels containing thrombi were counted. […]
# [8] = system: A20 lymphoma cells; assay: In vitro coagulation assay on A20 cells with B21-2/10H10 capture antibody; assay type: cell-based, mouse
# [9] = system: 3LL mouse lung carcinoma; assay: In vivo tumor thrombosis, 3LL; parameters: species or system C57BL/6 mice; settings: large (>800 mm^3) tumors
# From the text: as §1, §2, §3
# [10] = system: C1300 Muγ mouse neuroblastoma; assay: In vivo tumor thrombosis, C1300 Muγ; parameters: species or system BALB/c nu/nu mice
# From the text: as §1, §2, §3
# [11] = system: HT29 (human colorectal carcinoma) xenograft; assay: HT29 xenograft necrosis after tTF constructs with Factor VIIa; parameters: species or system BALB/c nu/nu mice; settings: mouse, in vivo, iv
molecule,measurement,setting,value
"NC(=O)c1nnn(Cc2cc(Cl)c(C(=O)c3ccc(Cl)cc3)c(Cl)c2)c1N [CAI, carboxyamidotriazole]",patients with disease stabilization,[1],49%
Cc1ccc2c(=O)c3cccc(CC(=O)O)c3oc2c1C [DMXAA],fold less effective than endotoxin in inducing TNFα,[2],20 fold
B1,inhibition of factor Xa production,[3],58%
same,effect of pre-treatment on coaguligand-induced anti-tumor effects,[4]; 100 μg Annexin V 2 hours before 40 μg coaguligand,completely abolished
same,effect on tumor morphology,[4]; 100 μg Annexin V alone,did not alter tumor morphology
B2,tumor size relative to mice receiving diluent alone,"[5]; 16-20 μg i.v., repeated one week later, one week after the second treatment",60%
same,tumor size relative to controls receiving diluent alone,"[5]; treatment repeated 6 days later, fourteen days after the first injection",75%
same,time tumors discontinued growth after treatment,[6],about 7 days
same,thrombosis of tumor vessels,[7],virtually all vessels were thrombosed
same,coagulation time,"[8]; 10^−10 M tTF219, absence of Factor VIIa",60 s
same,coagulation time,"[8]; 10^−10 M tTF219, presence of 13.5 nM Factor VIIa",20 s
same,"tumor vessels thrombosed, average",[9],62%
same,thrombosis of tumor vessels,[10]; 24 hours after injection,practically all vessels in all regions of the tumor were thrombosed
same,effect on vessels in small tumors,[10]; small (<500 mm^3) C1300 and C1300 Muγ,largely unaffected
same,"necrosis, average area as percentage of total tumor area",[11],some necrosis

# — patent publication US20030139374A1 (University of Texas, published 2003)
